Among the data in article PMC10421740, “A universal deep-learning model for zinc finger design enables transcription factor reprogramming” are binding signal values, retold here.

In data set [1] the target is ZFN pair 18BC_selected + 18ED_selected (synthetic construct, UniProt P14870;P14870 384-579;384-579). Nature of the data set: Zn; U2OS eGFP disruption, 3 days after nucleofection. As to conditions: tags: N-terminal 3xFLAG and SV40 NLS (kept in the assay, left out here); copies: 1;1.
In data set [2] the target is ZFN pair 18BC_designed + 18ED_designed (synthetic construct, UniProt P14870;P14870 384-579;384-579). The description is as above. Particulars: tags: N-terminal 3xFLAG and SV40 NLS (kept in the assay, left out here); copies: 1;1.
Data set [3] has as its target ZFN pair 12BC_substituted + 12ED_substituted (synthetic construct, UniProt P14870;P14870 384-579;384-579). The data set is described as above. Particulars: tags: N-terminal 3xFLAG and SV40 NLS (kept in the assay, left out here); copies: 1;1.
For data set [4], the target named is T1, ZFN pair 12BC_selected + 12ED_selected (synthetic construct, UniProt P14870;P14870 384-579;384-579).
T1 chain 1: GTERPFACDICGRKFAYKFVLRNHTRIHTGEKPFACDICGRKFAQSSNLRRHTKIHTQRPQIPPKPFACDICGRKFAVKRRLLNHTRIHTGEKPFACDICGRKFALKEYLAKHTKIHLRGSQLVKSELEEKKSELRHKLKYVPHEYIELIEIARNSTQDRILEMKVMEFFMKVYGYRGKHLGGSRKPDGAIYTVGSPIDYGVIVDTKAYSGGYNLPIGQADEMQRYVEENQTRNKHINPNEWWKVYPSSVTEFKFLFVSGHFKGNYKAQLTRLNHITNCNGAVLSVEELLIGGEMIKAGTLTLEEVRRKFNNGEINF
T1 chain 2: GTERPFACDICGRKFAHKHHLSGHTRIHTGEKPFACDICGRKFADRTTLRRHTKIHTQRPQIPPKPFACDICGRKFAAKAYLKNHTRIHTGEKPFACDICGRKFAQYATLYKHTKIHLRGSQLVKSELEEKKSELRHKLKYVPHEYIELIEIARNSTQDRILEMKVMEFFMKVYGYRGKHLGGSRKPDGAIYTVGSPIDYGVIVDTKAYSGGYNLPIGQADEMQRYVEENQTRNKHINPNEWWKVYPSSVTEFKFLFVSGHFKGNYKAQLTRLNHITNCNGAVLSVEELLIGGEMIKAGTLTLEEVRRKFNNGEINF
Described as above. As to conditions: tags: N-terminal 3xFLAG and SV40 NLS (kept in the assay, left out here); copies: 1;1.

Data set [5] has as its target ZFN pair 12BC_designed + 12ED_designed (synthetic construct, UniProt P14870;P14870 384-579;384-579). The data set is described as above. As to conditions: tags: N-terminal 3xFLAG and SV40 NLS (kept in the assay, left out here); copies: 1;1.
For data set [6], the target named is array CDKN1C 125RC (synthetic construct). Nature of the data set: Zn; HEK293T, RNA-seq. Particulars: tags: N-terminal SV40 NLS, C-terminal GS linker + VP64 (left out).
array CDKN1C 125RC (synthetic construct), sequence (chain, as listed by the source): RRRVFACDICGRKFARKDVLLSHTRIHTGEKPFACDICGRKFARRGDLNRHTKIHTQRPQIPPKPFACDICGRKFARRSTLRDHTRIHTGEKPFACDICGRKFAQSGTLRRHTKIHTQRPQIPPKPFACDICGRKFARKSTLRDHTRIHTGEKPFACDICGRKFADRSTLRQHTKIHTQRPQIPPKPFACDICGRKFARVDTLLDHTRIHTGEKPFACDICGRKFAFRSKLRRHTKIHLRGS

B1: eGFP site 18 (8 fingers) (dsDNA)
DNA 1: GCAGCACGACTTCTTCAAGTCCGCCATGCCCGAA
DNA 2: TTCGGGCATGGCGGACTTGAAGAAGTCGTGCTGC
For B1, the binding signal in data set [1] is ~47 % GFP-negative cells (higher = more activity); in data set [2], ~70 % GFP-negative cells (higher = more activity).

B2: eGFP site 12 (8 fingers) (dsDNA)
DNA 1: GAAGTTCATCTGCACCACCGGCAAGCTGCCCGTG
DNA 2: CACGGGCAGCTTGCCGGTGGTGCAGATGAACTTC
Consider B2, for which the binding signal in data set [3] was ~58 % GFP-negative cells (higher = more activity); in data set [4], ~65 % GFP-negative cells (higher = more activity); in data set [5], ~24 % GFP-negative cells (higher = more activity).

B3: CDK125RC (dsDNA)
DNA 1: GCGGCCCGGCCCCCGCGCACCGCCCATTGGC
DNA 2: GCCAATGGGCGGTGCGCGGGGGCCGGGCCGC
For the molecule B3, the binding signal in data set [6] is ~2.2 log2 fold change (RNA-seq) (higher = more activity).
